Test results as given in article PMC5438440.

Target: human μ receptor (human) (UniProt P35372)
UniProt P35372, sequence (P35372 whole entry): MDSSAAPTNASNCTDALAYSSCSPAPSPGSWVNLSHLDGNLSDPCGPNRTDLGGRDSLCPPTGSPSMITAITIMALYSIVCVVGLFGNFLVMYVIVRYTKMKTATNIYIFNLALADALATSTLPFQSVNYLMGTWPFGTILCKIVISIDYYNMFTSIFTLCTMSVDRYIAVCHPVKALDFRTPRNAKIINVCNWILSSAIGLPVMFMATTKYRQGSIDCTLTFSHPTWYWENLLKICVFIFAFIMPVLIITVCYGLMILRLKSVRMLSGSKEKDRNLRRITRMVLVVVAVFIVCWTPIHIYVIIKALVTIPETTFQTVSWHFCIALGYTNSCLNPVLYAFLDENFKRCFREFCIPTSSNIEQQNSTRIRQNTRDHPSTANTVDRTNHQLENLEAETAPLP

**Q.** For DAMGO (peptide), which EC50 of the FRET signal increase (cAMP decrease) of the Epac sensor H187 in single HEK293 cells co-expressing μR, increasing concentrations of DAMGO, no forskolin pre-treatment is on record?
**A.** 0.091 nM
